Experimental data reported in US20060257492A1, “Suspension of calcium phosphate particulates for local delivery of therapeutic agents” (DePuy Products, Inc., priority 2005, published 2006).

Tests used:
[1] = TGF-β1 adsorption, elution and dissolution test on biomimetic apatite (HPLC); type: physicochemical
Description: A parallel study was designed for testing the interaction between biomimetic apatite mineral with TGF-β1 by using a sodium acetate buffer containing 0.1 mg/mL BSA. […] Fifty five percent of growth factor (20 μg) was adsorbed by biomimetic apatite crystallites after 4 hours. Ten percent additional protein was adsorbed in the next 20 hour.

[2] = Osteocalcin adsorption, elution and dissolution test on biomimetic apatite (HPLC); type: physicochemical; conditions: 20 μg protein
Description: The test with osteocalcin was conducted by incubating biomimetic apatite prepared on Ti6Al4V substrates with phosphate buffered saline (PBS) containing 0.1 mg/mL (bovine serum albumin) BSA. […] Eighty five percent of the original protein (20 μg) is adsorbed by biomimetic apatite crystals within 3 hours of test. An elution test was designed to further test the affinity of biomimetic apatite to osteocalcin in PBS containing 0.1 mg/mL BSA was measured (FIG. 6). Only ˜6% of the originally applied protein (20 μg) was eluted out from the biomimetic apatite crystals after 20 hours of incubation.

| Substance | growth factor adsorbed by biomimetic apatite crystallites ([1]; 20 μg, sodium acetate buffer containing 0.1 mg/mL BSA, after 4 hours) | elution and dissolution profiles ([1]; compared with osteocalcin) | additional protein adsorbed ([1]; sodium acetate buffer containing 0.1 mg/mL BSA, in the next 20 hour) | originally applied protein eluted out from the biomimetic apatite crystals ([2]; PBS containing 0.1 mg/mL BSA, after 20 hours of incubation) | original protein adsorbed by biomimetic apatite crystals ([2]; PBS containing 0.1 mg/mL BSA, within 3 hours) | protein recovered after dissolution of the minerals in acid ([2]; minerals fully dissolved in acid) |
| --- | --- | --- | --- | --- | --- | --- |
| transforming growth factor-beta-1 [TGF-β1] | Fifty five | very similar to those of osteocalcin | Ten |  |  |  |
| osteocalcin (YLYQWLGAPVPYPDPLEPRREVCELNPDCDELADHIGFQEAYRRFYGPV; UniProt P02818 52-100, looked up) |  |  |  | ~6% | Eighty five | ~64% |
